# Assay results: patent publication US20250263490A1 (VIB VZW, published 2025)
# B1: anti-CI-M6PR VHH1 (VHH)
# VHH: QVQLQESGGGLVQPGGSLRLSCVASGFTFDRYWMNWLRQIPGKEIEWVSTINTGGTGTYYDDSVKGRFSISRDDAKNTLYLTMNSLKTEDTAVYYCARGATYYRGNSAIRGQGTQVTVSS
# notes: His6-tagged; made in Pichia pastoris, later also in E. coli WK6
# B2: anti-CI-M6PR VHH11 (VHH)
# VHH: QVQLQESGGGLVQAGDSLKLSCTASGPTFSEITGGWFRQVPGKEREFVASISSTGITTYYTDSVKGRFTVSRDNAKNTMYLQMNSLKPEDTGVYYCAARSTSRSIAITVGYDYWGQGTQVTVSS
# notes: His6-tagged; made in Pichia pastoris
# B3: anti-CI-M6PR VHH3 (VHH)
# VHH: QVQLQESGGGLVQPGGSLRLSCAAFGLNFKNFDMIWFRQAPGEERDIVAAISSSSSTIWYEDSVKGRFTISRDNAKNTVYLQMNSLKPEDTAVYYCAAALTSWRRPDYWGQGTQVTVSS
# notes: as for B2
# B4: anti-CI-M6PR VHH5 (VHH)
# VHH: QVQLQESGGGLVQAGGSLKLSCAAAGRTFSRLAMGWFRQAPGKEREFVAAISENGDSIHYSDSVKGRFAVSRDNAKNTVYLQMNSLKPEDTAIYYCAADRAAYYCSGSGCYPSRAPAAASYDYWGQGTQVTVSS
# notes: as for B1
# B5: anti-CI-M6PR VHH7 (VHH)
# VHH: QVQLQESGGGLVQPGGSLRLSCAASGIIFSDNRMDWYRQAPGKQREWVATLASYGWKTYADSVKGRFTISRDNTKNTVYLRMNSLKPEDTAVYYCKASSPVLNDIWGQGTQVTVSS
# notes: His6-tagged (Pichia pastoris)
# B6: anti-CI-M6PR VHH6 (VHH)
# VHH: QVQLQESGGGLVQAGGSLRLSCAVSGSISSIGGMGWFRQAPGKQREFVAVILNNSGMTSYADSVKGRFTISRGNSKNTMYLQMNSLKPEDTAVYYCNYSGYWGQGTQVTVSS
# notes: His6-tagged; made in E. coli
# B7: anti-CI-M6PR VHH10 (VHH)
# VHH: QVQLQESGGGSVQAGGSLRLSCAPAGRTFSRIRMGWFRQAPGKEREFVAAISSGGLSYYADSMKGRFTISRDNAKNTVLLQMNSLEPDDTAVYYCAAVLNDYIDDYVARNPTLYDYWGQGTQVTVSS
# notes: as for B2
# B8: anti-CI-M6PR VHH9 (VHH)
# VHH: QVQLQESGGGLVQAGGSLRLSCAASGTILSIKTMGWYRQAPGKEREWVATITSSSIPMYADSVKGRFTISRDDAKNTVYLQMNSLKPEDTGVYYCNAPWTDYWGQGTQVTVSS
# notes: as for B2
# B9: anti-CI-M6PR VHH4 (VHH)
# VHH: QVQLQESGGGLVQAGGSLRLSCAASGRTFSNYVMGWFRQAPGKEREFVGSISQGGKMTYYPDSVKGRFTISRDNAKNTMYLQMDGLKPEDTAVYYCAVSRGYPMVRVSEVDYWGQGTQVTVSS
# notes: as for B2
# B10: anti-CI-M6PR VHH8 (VHH)
# VHH: QVQLQESGGGLVQAGGSLRLSCEASGRTFNTYNWGWFRQAPGKEREFVAAIRWSSSKTSYADSVKGRFTISRDNAKNTIYLQMNSLKPEDTAVYYCAASIVDFTTNPSHFGSWGQGTQVTVSS
# notes: His6-tagged (Pichia pastoris)
# Target: T1, recombinant human domain 1-3His6 of the cation-independent mannose-6-phosphate receptor (human, UniProt P11717 41-467)
# T1 construct: Biotinylated (NHS-PEG4-biotin) for BLI; Glycosylated; also called hDom1-3His6; hCI-M6PRD1-D3
# Assay: BLI exp 1, dissoc pH 5
# Procedure: (§1) For each of the 11 anti-CI-M6PR VHHs, a biolayer interferometry (BLI) experiment was performed in which the hDom₁₋₃His₆ was biotinylated and coupled to streptavidin biosensor tips. Afterwards, the tips were incubated with serially diluted VHHs during the association phase and dissociation was performed at pH 7.4. Similarly, dissociation was performed at pH 7.0, pH 6.0 and pH 5.0 as well after regeneration of the biosensor tips. […] The anti-CI-M6PR antibody (clone 2G11) and GBP were used as positive and negative controls, respectively.
# (§2) Analysis of the binding kinetics was performed using an Octet Red96 (FortéBio) device with Streptavidin SA Biosensor tips (VWR 733-2145). Therefore, 1 mL of human domain₁₋₃His₆ (0.5 mg/mL in 50 mM MES, 150 mM NaCl, pH 6.5) was incubated at room temperature for 30 minutes with EZ-Link™ NHS-PEG4-Biotin (1 mg) (Thermo Fischer A39259) and NaHCO₃ (100 mM). Biotinylated human domain₁₋₃His₆ was purified using a Zeba spin desalting Column™ (7K MWCO, 2 mL, Thermo Fischer 89890) and 1 μg/mL was used for immobilization on the Streptavidin SA Biosensor tips. The loaded tips were dipped into a particular anti-CI-M6PR VHH solution, serially diluted in kinetics buffer (0.2M NaH₂PO₄, 0.1M Na⁺ citrate, 0.01% BSA, 0.002% Tween20, pH 7.4). This was followed by dissociation of the particular anti-CI-M6PR VHH in kinetics buffer of pH 7.4, followed by regeneration in Glycine (10 mM, pH 3) and neutralisation. Same cycle was repeated but the dissociation was performed at pH 7.0, 6.0, 5.0, 4.5 and 4.0. A reference well and reference sensors were subtracted from ligand sensors afterwards and Savitsky-Golay filtering was applied on the data. Fitting of the data was performed using a 1:1 model, grouped per pH of dissociation.
Kd,koff,kon,Binder
24.7 nM,~0.0988 s⁻¹,4e+06 M⁻¹ s⁻¹,B1
113 nM,0.0253 s⁻¹,225000 M⁻¹ s⁻¹,B2
1.36 nM,0.00149 s⁻¹,1.1e+06 M⁻¹ s⁻¹,B3
5.76 nM,0.00861 s⁻¹,1.5e+06 M⁻¹ s⁻¹,B4
11.7 nM,0.0542 s⁻¹,4.62e+06 M⁻¹ s⁻¹,B5
8.5 nM,0.0156 s⁻¹,1.84e+06 M⁻¹ s⁻¹,B6
,0.0106 s⁻¹,91100 M⁻¹ s⁻¹,B7
84.1 nM,0.0496 s⁻¹,590000 M⁻¹ s⁻¹,B8
10 nM,0.00729 s⁻¹,729000 M⁻¹ s⁻¹,B9
109 nM,0.0328 s⁻¹,302000 M⁻¹ s⁻¹,B10

# Target: T1, recombinant human domain 1-3His6 of the …
# Assay: BLI exp 1, dissoc pH 6
# Procedure: as §1, §2
Kd,koff,kon,Binder
12.7 nM,~0.0165 s⁻¹,1.3e+06 M⁻¹ s⁻¹,B1
34.2 nM,0.00665 s⁻¹,195000 M⁻¹ s⁻¹,B2
0.27 nM,0.000851 s⁻¹,3.16e+06 M⁻¹ s⁻¹,B3
0.0111 nM,1.52e-05 s⁻¹,1.38e+06 M⁻¹ s⁻¹,B4
8.75 nM,0.0321 s⁻¹,3.67e+06 M⁻¹ s⁻¹,B5
1.56 nM,0.00242 s⁻¹,1.55e+06 M⁻¹ s⁻¹,B6
,0.00205 s⁻¹,39100 M⁻¹ s⁻¹,B7
0.674 nM,0.00122 s⁻¹,1.81e+06 M⁻¹ s⁻¹,B8
3.18 nM,0.00101 s⁻¹,316000 M⁻¹ s⁻¹,B9
12.7 nM,0.00293 s⁻¹,231000 M⁻¹ s⁻¹,B10

# Target: T1, recombinant human domain 1-3His6 of the …
# Assay: BLI exp 2, dissoc pH 6
# Procedure: as §1
# Analysis of the binding kinetics was performed using an Octet Red96 (FortéBio) device with Streptavidin SA Biosensor tips (VWR, 733-2145). To this end, 1 mL of hCI-M6PR_D1-D3 (0.5 mg/mL in 50 mM MES, 150 mM NaCl, pH 6.5) was incubated at room temperature for 30 minutes with a two-fold molar excesses of EZ-Link™ NHS-PEG₄-Biotin (Thermo Fischer, A39259) and NaHCO₃ (100 mM, pH 8.3). Biotinylated hCIMPR_D1-D3 was purified using a Zeba spin desalting column (Thermo Fischer, 89890) and protein concentration was calculated by measuring the absorbance at 280 nm (extinction coefficient 50320 M¹ cm⁻¹). Two-fold biotin-labelled antigen was loaded on the tips (2.5 μg/mL) and subsequently dipped into a particular anti-CI-M6PR VHH-containing solution (ranging from 0-100 nM). Serial VHH dilutions were made in kinetics buffer (0.2 M Na₂HPO₄, 0.1 M Na⁺ citrate, 0.01% BSA, 0.002% Tween20, pH 7.4). After association (100 sec), dissociation was conducted (500 sec) for each anti-CI-M6PR VHH in the kinetics buffer, followed by biosensor regeneration in glycine (10 mM, pH 3) and neutralisation. The same cycle was repeated with dissociation performed in kinetics buffer of pH 7.0, 6.5, 6.0, 5.5, and 5.0.
# A reference well and reference sensors were subtracted from ligand sensors afterwards and Savitsky-Golay filtering was applied on the data. Fitting of the data was performed using a 1:1 model, grouped per dissociation pH.
koff,kon,Binder
0.021 s⁻¹,560000 M⁻¹ s⁻¹,B1
0.00665 s⁻¹,195000 M⁻¹ s⁻¹,B2
0.000499 s⁻¹,40600 M⁻¹ s⁻¹,B3
0.00029 s⁻¹,1.7e+06 M⁻¹ s⁻¹,B4
0.028 s⁻¹,40000 M⁻¹ s⁻¹,B5
0.00227 s⁻¹,718000 M⁻¹ s⁻¹,B6
0.00205 s⁻¹,39100 M⁻¹ s⁻¹,B7
0.000122 s⁻¹,615000 M⁻¹ s⁻¹,B8
0.00126 s⁻¹,572000 M⁻¹ s⁻¹,B9
0.0012 s⁻¹,1.3e+08 M⁻¹ s⁻¹,B10

# Target: T1, recombinant human domain 1-3His6 of the …
# Assay: BLI exp 2, dissoc pH 7
koff,kon,Binder
0.0021 s⁻¹,1.5e+06 M⁻¹ s⁻¹,B1
0.00394 s⁻¹,194000 M⁻¹ s⁻¹,B2
0.000844 s⁻¹,53000 M⁻¹ s⁻¹,B3
0.00019 s⁻¹,1.5e+06 M⁻¹ s⁻¹,B4
0.013 s⁻¹,130000 M⁻¹ s⁻¹,B5
0.00242 s⁻¹,392000 M⁻¹ s⁻¹,B6
0.00148 s⁻¹,99300 M⁻¹ s⁻¹,B7
0.00051 s⁻¹,379000 M⁻¹ s⁻¹,B8
0.00101 s⁻¹,316000 M⁻¹ s⁻¹,B9
0.000976 s⁻¹,404000 M⁻¹ s⁻¹,B10

# Target: T1, recombinant human domain 1-3His6 of the …
# Assay: BLI exp 1, dissoc pH 7.4
# Procedure: as §1, §2
Kd,koff,kon,Binder
7.44 nM,~0.00606 s⁻¹,814000 M⁻¹ s⁻¹,B1
41.4 nM,0.00317 s⁻¹,76700 M⁻¹ s⁻¹,B2
≤ 0.000117 nM,≤ 1e-07 s⁻¹,853000 M⁻¹ s⁻¹,B3
0.0903 nM,0.000124 s⁻¹,1.37e+06 M⁻¹ s⁻¹,B4
10.8 nM,0.00999 s⁻¹,924000 M⁻¹ s⁻¹,B5
3.35 nM,0.00352 s⁻¹,1.05e+06 M⁻¹ s⁻¹,B6
46.3 nM,0.00177 s⁻¹,38100 M⁻¹ s⁻¹,B7
0.282 nM,0.000444 s⁻¹,1.57e+06 M⁻¹ s⁻¹,B8
2.33 nM,0.00133 s⁻¹,571000 M⁻¹ s⁻¹,B9
1.69 nM,0.000787 s⁻¹,465000 M⁻¹ s⁻¹,B10

# Target: T1, recombinant human domain 1-3His6 of the …
# Assay: ELISA on coated antigen, 1st of 2 repeats
# Procedure: FIGS. 4A-4B. Affinity of anti-CI-M6PR VHHs for recombinant human CI-M6PR Domain 1-3His₆ determined by ELISA. A & B. Measurements for each of the 11 anti-CI-M6PR VHHs in serial dilution binding to the coated human CI-M6PR Domain 1-3His₆ antigen. Detection was performed using an anti-VHH antibody coupled to HRP, and measured as the absorbance of the TMB substrate at 450 nm, correlating to the amount of bound VHH as plotted at the Y-axis. The Log₁₀ concentrations of the serially diluted VHHs were plotted at the X-axis. […] A & B represent replicates but using a different concentration of human CI-M6PR Domain 1-3His₆ (in (FIG. 4A): 0-0.75 μM and in (FIG. 4B): 0-1 μM).
# We evaluated the affinity of the VHHs against the hDom₁₋₃His₆ using ELISA. Coated hDom₁₋₃His₆ was incubated with serially diluted VHH that was afterwards detected using an anti-VHH antibody, coupled to HRP.
row,EC50,Binder
1,1.78 nM,B1
2,0.249 nM,B2
3,0.0379 nM,B3
4,0.0816 nM,B4
5,0.0109 nM,B5
6,84.2 nM,B6
7,0.0657 nM,B7
8,0.00642 nM,B8
9,0.11 nM,B10
